Target: GATA3, P23771-2
Sequence (P23771 other isoform, or with tags, fused parts or gaps): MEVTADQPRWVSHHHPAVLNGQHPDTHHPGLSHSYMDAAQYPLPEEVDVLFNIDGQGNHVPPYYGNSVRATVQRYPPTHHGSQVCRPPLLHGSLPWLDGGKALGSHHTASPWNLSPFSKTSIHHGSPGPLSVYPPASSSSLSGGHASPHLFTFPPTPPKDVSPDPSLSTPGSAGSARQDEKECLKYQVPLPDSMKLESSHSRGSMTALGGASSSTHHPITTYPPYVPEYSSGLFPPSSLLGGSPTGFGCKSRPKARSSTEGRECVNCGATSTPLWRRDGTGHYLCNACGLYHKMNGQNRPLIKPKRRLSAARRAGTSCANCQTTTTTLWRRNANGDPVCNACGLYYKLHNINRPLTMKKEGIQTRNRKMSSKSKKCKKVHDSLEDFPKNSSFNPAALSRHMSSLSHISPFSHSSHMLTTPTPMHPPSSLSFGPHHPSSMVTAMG

| Substance | effect of a mutation on the interaction |
| --- | --- |
| Transcription factor SOX-4 (Mus musculus), Q06831 R61A;P62A | decreasing interaction |
| Transcription factor SOX-4 (Mus musculus), Q06831 F66A;M67A | decreasing interaction |
